Results published in publication PMC5777972 (Protein & Cell, 2017).

Experiments:
[1] = target: T1, PD-L1 extracellular domain fragment (from F19 to R238) (Homo sapiens, UniProt Q9NZQ7); assay: SPR; BIAcore T100, CM5 chip, about 1000 RU of PD-L1 immobilised, scFv flowed at 5 nM to 80 nM, 25 °C, HBS-EP (150 mM NaCl, 10 mM HEPES, pH 7.4, 0.005% Tween-20), 1:1 Langmuir model; conditions: both partners purified
T1 construct: PD-L1 extracellular domain fragment, F19 to R238; probably the start methionine of the E. coli construct (surmise); also called two-Ig-domain PD-L1

[2] = target: T2, two-Ig-domain PD-L1 (Homo sapiens, UniProt Q9NZQ7); assay: SPR; PD-L1 protein immobilised on the chip, scFvs of the anti-PD-L1 MAbs flowed through; BIAcore T100; conditions: both partners purified
T2 construct: PD-L1, the two Ig domains (IgV and the second Ig domain)
T2 sequence (Q9NZQ7 19-238): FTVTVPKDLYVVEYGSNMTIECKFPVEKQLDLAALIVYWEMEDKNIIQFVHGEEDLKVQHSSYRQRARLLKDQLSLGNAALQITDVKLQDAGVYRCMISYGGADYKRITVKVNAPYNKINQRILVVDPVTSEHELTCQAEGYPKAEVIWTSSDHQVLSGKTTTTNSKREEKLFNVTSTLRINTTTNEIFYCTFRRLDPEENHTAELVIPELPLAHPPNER

T1 sequence (Q9NZQ7 19-238): as above

Binder	koff [1] [s⁻¹]	kon [1] [M⁻¹ s⁻¹]	Kd [2] [nM]
avelumab-scFv (scFv, V domains shown, VL of avelumab; avelumab-scFv 'obtained as durvalumab-scFv'; VH of avelumab; Order VL-linker-VH is stated for durvalumab-scFv only; also called avalumab-scFv) VH: EVQLLESGGGLVQPGGSLRLSCAASGFTFSSYIMMWVRQAPGKGLEWVSSIYPSGGITFYADTVKGRFTISRDNSKNTLYLQMNSLRAEDTAVYYCARIKLGTVTTVDYWGQGTLVTVSS VL: QSALTQPASVSGSPGQSITISCTGTSSDVGGYNYVSWYQQHPGKAPKLMIYDVSNRPSGVSNRFSGSKSGNTASLTISGLQAEDEADYYCSSYTSSSTRVFGTGTKVTVL	7.53e-05	1.61e+06	
scFv of avelumab (scFv, V domains shown, VH and VL of avelumab as in the cited complex with PD-L1, PDB 5GRJ; The parent antibody is IgG1; the scFv was used for SPR; Its preparation may be told in the supplementary information) VH: EVQLLESGGGLVQPGGSLRLSCAASGFTFSSYIMMWVRQAPGKGLEWVSSIYPSGGITFYADTVKGRFTISRDNSKNTLYLQMNSLRAEDTAVYYCARIKLGTVTTVDYWGQGTLVTVSS VL: QSALTQPASVSGSPGQSITISCTGTSSDVGGYNYVSWYQQHPGKAPKLMIYDVSNRPSGVSNRFSGSKSGNTASLTISGLQAEDEADYYCSSYTSSSTRVFGTGTKVTVL			0.0467
